Assay results taken from the supplement of paper PMC9112550, “Optimization of the antimicrobial peptide Bac7 by deep mutational scanning” (BMC Biology, 2022).

test system: Escherichia coli TOP10; assay: shrunken log2 fold change of peptide-encoding DNA abundance (4.5 h post-induction vs induction); higher = less antimicrobial activity (less host growth inhibition); conditions: time post-induction: 4.5 h; library: site-saturation at positions 5, 18, 19, 20
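Further: peptides expressed intracellularly from a pBAD plasmid library in pooled LB shake-flask culture, induced with 0.3% L-arabinose, DNA abundance read by NGS, three biological replicates, DESeq2 with apeglm shrinkage.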

Sequence	shrunken log2 fold change
RRIRFRPPRLPRPRPRPYEAPRP	-0.493
RRIRFRPPRLPRPRPRPYFTPRP	-1.09
RRIRFRPPRLPRPRPRPYFYPRP	-0.808
RRIRFRPPRLPRPRPRPYGVPRP	-0.00783
RRIRFRPPRLPRPRPRPYIFPRP	-0.829
RRIRFRPPRLPRPRPRPYISPRP	-0.295
RRIRFRPPRLPRPRPRPYKPPRP	0.108
RRIRFRPPRLPRPRPRPYLNPRP	-0.454
RRIRFRPPRLPRPRPRPYLWPRP	-0.309
RRIRFRPPRLPRPRPRPYMDPRP	-0.0184
RRIRFRPPRLPRPRPRPYMNPRP	-0.818
RRIRFRPPRLPRPRPRPYNGPRP	-1.47
RRIRFRPPRLPRPRPRPYNHPRP	-1.2
RRIRFRPPRLPRPRPRPYNMPRP	-0.725
RRIRFRPPRLPRPRPRPYNQPRP	-0.881
RRIRFRPPRLPRPRPRPYPIPRP	-0.281
RRIRFRPPRLPRPRPRPYQMPRP	-0.0843
RRIRFRPPRLPRPRPRPYRLPRP	0.0227
RRIRFRPPRLPRPRPRPYTIPRP	0.0439
RRIRFRPPRLPRPRPRPYVRPRP	-0.0985
RRIRFRPPRLPRPRPRPYVVPRP	-0.252
RRIRFRPPRLPRPRPRPYWEPRP	-0.391
RRIRGRPPRLPRPRPRPACEPRP	0.833
RRIRGRPPRLPRPRPRPACHPRP	0.889
RRIRGRPPRLPRPRPRPACNPRP	0.415

Sequence	shrunken log2 fold change
RRIRGRPPRLPRPRPRPACRPRP	0.549
RRIRGRPPRLPRPRPRPAEKPRP	0.261
RRIRGRPPRLPRPRPRPAEPPRP	0.176
RRIRGRPPRLPRPRPRPAFDPRP	0.763
RRIRGRPPRLPRPRPRPAFHPRP	0.209
RRIRGRPPRLPRPRPRPAFNPRP	0.2
RRIRGRPPRLPRPRPRPAGNPRP	0.693
RRIRGRPPRLPRPRPRPAGWPRP	1.15
RRIRGRPPRLPRPRPRPAGYPRP	0.164
RRIRGRPPRLPRPRPRPAHAPRP	1.06
RRIRGRPPRLPRPRPRPAHWPRP	0.378
RRIRGRPPRLPRPRPRPAIDPRP	0.568
RRIRGRPPRLPRPRPRPAISPRP	0.296
RRIRGRPPRLPRPRPRPAIYPRP	0.302
RRIRGRPPRLPRPRPRPAKKPRP	0.00559
RRIRGRPPRLPRPRPRPALQPRP	0.333
RRIRGRPPRLPRPRPRPALWPRP	0.985
RRIRGRPPRLPRPRPRPAMCPRP	0.465
RRIRGRPPRLPRPRPRPAMYPRP	0.369
RRIRGRPPRLPRPRPRPAPTPRP	1.2
RRIRGRPPRLPRPRPRPAQIPRP	0.592
RRIRGRPPRLPRPRPRPARNPRP	0.51
RRIRGRPPRLPRPRPRPARQPRP	0.654
RRIRGRPPRLPRPRPRPASRPRP	0.705
RRIRGRPPRLPRPRPRPAVTPRP	0.688

Sequence	shrunken log2 fold change
RRIRGRPPRLPRPRPRPAWAPRP	0.854
RRIRGRPPRLPRPRPRPAYHPRP	-0.141
RRIRGRPPRLPRPRPRPCDEPRP	0.566
RRIRGRPPRLPRPRPRPCDHPRP	0.135
RRIRGRPPRLPRPRPRPCELPRP	-0.02
RRIRGRPPRLPRPRPRPCFLPRP	0.0171
RRIRGRPPRLPRPRPRPCFQPRP	0.106
RRIRGRPPRLPRPRPRPCGKPRP	0.0957
RRIRGRPPRLPRPRPRPCHFPRP	0.0576
RRIRGRPPRLPRPRPRPCIFPRP	0.426
RRIRGRPPRLPRPRPRPCIYPRP	0.0369
RRIRGRPPRLPRPRPRPCKWPRP	-0.075
RRIRGRPPRLPRPRPRPCNGPRP	-0.199
RRIRGRPPRLPRPRPRPCQLPRP	-0.327
RRIRGRPPRLPRPRPRPCQTPRP	0.0774
RRIRGRPPRLPRPRPRPCRHPRP	0.0672
RRIRGRPPRLPRPRPRPCRQPRP	0.436
RRIRGRPPRLPRPRPRPCVDPRP	1.17
RRIRGRPPRLPRPRPRPCWCPRP	0.171
RRIRGRPPRLPRPRPRPCWVPRP	-0.00887
RRIRGRPPRLPRPRPRPCWWPRP	0.554
RRIRGRPPRLPRPRPRPDAYPRP	0.829
RRIRGRPPRLPRPRPRPDCIPRP	0.799
RRIRGRPPRLPRPRPRPDDAPRP	0.314
RRIRGRPPRLPRPRPRPDEFPRP	0.561

Sequence	shrunken log2 fold change
RRIRGRPPRLPRPRPRPDFNPRP	0.325
RRIRGRPPRLPRPRPRPDFYPRP	0.232
RRIRGRPPRLPRPRPRPDHDPRP	0.301
RRIRGRPPRLPRPRPRPDHKPRP	-0.154
RRIRGRPPRLPRPRPRPDHSPRP	-0.0179
RRIRGRPPRLPRPRPRPDHVPRP	0.0598
RRIRGRPPRLPRPRPRPDKIPRP	0.813
RRIRGRPPRLPRPRPRPDKNPRP	0.32
RRIRGRPPRLPRPRPRPDLSPRP	0.121
RRIRGRPPRLPRPRPRPDLYPRP	0.574
RRIRGRPPRLPRPRPRPDMFPRP	1.92
RRIRGRPPRLPRPRPRPDMKPRP	0.00543
RRIRGRPPRLPRPRPRPDNEPRP	1.84
RRIRGRPPRLPRPRPRPDNKPRP	-0.169
RRIRGRPPRLPRPRPRPDNSPRP	0.0661
RRIRGRPPRLPRPRPRPDQAPRP	0.925
RRIRGRPPRLPRPRPRPDQMPRP	0.633
RRIRGRPPRLPRPRPRPDQSPRP	0.777
RRIRGRPPRLPRPRPRPDQTPRP	0.0112
RRIRGRPPRLPRPRPRPDRIPRP	0.286
RRIRGRPPRLPRPRPRPDRSPRP	0.23
RRIRGRPPRLPRPRPRPDSEPRP	0.321
RRIRGRPPRLPRPRPRPDSRPRP	0.122
RRIRGRPPRLPRPRPRPDTQPRP	0.632
RRIRGRPPRLPRPRPRPDVMPRP	1.33

Sequence	shrunken log2 fold change
RRIRGRPPRLPRPRPRPDVPPRP	0.0136
RRIRGRPPRLPRPRPRPDVSPRP	0.163
RRIRGRPPRLPRPRPRPDYCPRP	0.0958
RRIRGRPPRLPRPRPRPDYEPRP	0.19
RRIRGRPPRLPRPRPRPDYRPRP	0.127
RRIRGRPPRLPRPRPRPDYYPRP	-0.0926
RRIRGRPPRLPRPRPRPEDDPRP	2.81
RRIRGRPPRLPRPRPRPEDFPRP	0.149
RRIRGRPPRLPRPRPRPEDMPRP	1.02
RRIRGRPPRLPRPRPRPEDVPRP	0.157
RRIRGRPPRLPRPRPRPEEWPRP	1.7
RRIRGRPPRLPRPRPRPEFMPRP	0.887
RRIRGRPPRLPRPRPRPEGLPRP	1.06
RRIRGRPPRLPRPRPRPEHEPRP	0.176
RRIRGRPPRLPRPRPRPEHGPRP	0.602
RRIRGRPPRLPRPRPRPEHSPRP	0.114
RRIRGRPPRLPRPRPRPEITPRP	0.542
RRIRGRPPRLPRPRPRPELQPRP	2.19
RRIRGRPPRLPRPRPRPEMSPRP	0.25
RRIRGRPPRLPRPRPRPENLPRP	-0.0405
RRIRGRPPRLPRPRPRPENYPRP	-0.144
RRIRGRPPRLPRPRPRPEPKPRP	0.45
RRIRGRPPRLPRPRPRPEQAPRP	1.83
RRIRGRPPRLPRPRPRPESNPRP	2
RRIRGRPPRLPRPRPRPEVQPRP	1.71

Sequence	shrunken log2 fold change
RRIRGRPPRLPRPRPRPEVRPRP	0.919
RRIRGRPPRLPRPRPRPEVSPRP	0.372
RRIRGRPPRLPRPRPRPFCWPRP	0.551
RRIRGRPPRLPRPRPRPFDMPRP	0.255
RRIRGRPPRLPRPRPRPFDVPRP	0.147
RRIRGRPPRLPRPRPRPFERPRP	-0.012
RRIRGRPPRLPRPRPRPFEWPRP	-0.127
RRIRGRPPRLPRPRPRPFGLPRP	-0.0119
RRIRGRPPRLPRPRPRPFHAPRP	-0.13
RRIRGRPPRLPRPRPRPFHIPRP	-0.14
RRIRGRPPRLPRPRPRPFHQPRP	-0.199
RRIRGRPPRLPRPRPRPFHSPRP	-0.155
RRIRGRPPRLPRPRPRPFHYPRP	-0.383
RRIRGRPPRLPRPRPRPFILPRP	-0.196
RRIRGRPPRLPRPRPRPFIYPRP	0.0217
RRIRGRPPRLPRPRPRPFKTPRP	-0.341
RRIRGRPPRLPRPRPRPFLAPRP	0.525
RRIRGRPPRLPRPRPRPFLEPRP	0.625
RRIRGRPPRLPRPRPRPFLGPRP	0.0188
RRIRGRPPRLPRPRPRPFNPPRP	-0.439
RRIRGRPPRLPRPRPRPFRAPRP	0.209
RRIRGRPPRLPRPRPRPFRTPRP	-0.0333
RRIRGRPPRLPRPRPRPFTRPRP	0.0912
RRIRGRPPRLPRPRPRPFVSPRP	-0.166
RRIRGRPPRLPRPRPRPFWGPRP	0.289
